The target of data set [1] is Mer2 coiled-coil single-chain dimer (S. cerevisiae) (UniProt P21651). Briefly: SEC-MALS.
Another data set concerns the target T1, Mer2 (Saccharomyces cerevisiae, UniProt P21651 1-314).
T1 sequence: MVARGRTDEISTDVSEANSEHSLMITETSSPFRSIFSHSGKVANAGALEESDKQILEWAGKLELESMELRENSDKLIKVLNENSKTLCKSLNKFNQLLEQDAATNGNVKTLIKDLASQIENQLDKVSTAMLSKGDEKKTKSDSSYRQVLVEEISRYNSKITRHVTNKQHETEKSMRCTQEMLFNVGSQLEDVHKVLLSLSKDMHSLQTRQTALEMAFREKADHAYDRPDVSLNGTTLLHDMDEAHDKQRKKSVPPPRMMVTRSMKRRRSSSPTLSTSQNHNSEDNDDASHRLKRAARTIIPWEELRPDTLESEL
Briefly: EMSA. A general note: Mobility shift assays separate free from complexed probe on a gel.

In a further data set the target is T2, Rec114-Mei4 (Saccharomyces cerevisiae, UniProt P32841;P29467 1-428;1-408).
T2 sequence 1: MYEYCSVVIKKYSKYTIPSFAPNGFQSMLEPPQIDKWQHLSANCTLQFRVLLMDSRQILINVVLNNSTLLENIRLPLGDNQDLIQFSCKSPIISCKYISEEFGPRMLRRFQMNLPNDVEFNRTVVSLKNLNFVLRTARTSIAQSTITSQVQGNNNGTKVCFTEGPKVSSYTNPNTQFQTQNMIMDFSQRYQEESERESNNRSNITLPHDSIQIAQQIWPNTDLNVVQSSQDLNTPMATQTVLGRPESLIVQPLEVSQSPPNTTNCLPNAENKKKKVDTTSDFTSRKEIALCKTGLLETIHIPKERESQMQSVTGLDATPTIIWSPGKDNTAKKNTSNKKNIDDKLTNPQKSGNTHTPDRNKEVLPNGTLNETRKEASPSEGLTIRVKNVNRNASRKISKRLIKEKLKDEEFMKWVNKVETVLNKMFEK
T2 sequence 2: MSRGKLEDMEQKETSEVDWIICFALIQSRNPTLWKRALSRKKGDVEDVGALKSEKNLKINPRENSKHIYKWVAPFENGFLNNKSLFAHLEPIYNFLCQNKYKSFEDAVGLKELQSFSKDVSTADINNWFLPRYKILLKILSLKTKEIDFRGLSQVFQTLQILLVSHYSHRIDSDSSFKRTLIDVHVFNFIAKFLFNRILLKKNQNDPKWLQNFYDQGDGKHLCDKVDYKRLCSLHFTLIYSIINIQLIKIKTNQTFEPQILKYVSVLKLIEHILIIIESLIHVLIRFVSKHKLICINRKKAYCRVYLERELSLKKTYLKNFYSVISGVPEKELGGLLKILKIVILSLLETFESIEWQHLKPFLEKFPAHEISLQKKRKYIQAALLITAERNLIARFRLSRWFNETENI
In words: EMSA.

Data set [2] concerns the molecule itself. In words: SEC-MALS.
Data set [3] deals with the molecule itself. Briefly: SEC-MALS. The source holds these as a separate data set. On the technique in general: Size exclusion chromatography separates by hydrodynamic size, large species first.
Another data set has as its target T3, MBP-tagged Mei4 (S. cerevisiae, UniProt P29467 1-408).
T3 sequence: T2 sequence 2
Briefly: SEC-MALS.

The target of data set [4] is T4, Mei4 (untagged, from ^MBP-TEVMei4) (S. cerevisiae, UniProt P29467 1-408).
T4 sequence: T2 sequence 2
Briefly: SEC-MALS.

Read-outs that look alike come from different tables or passages of the source.

Usually stoichiometry N stands for a count of units in the complex or per binding partner.

“Mer2 coiled-coil single-chain dimer (from UniProt P21651)” registered a stoichiometry N in data set [1] of 2.

B1: dsDNA80 (dsDNA)
DNA 1: CTAGTATAGAGCCGGCGCGCCATGTCTAGATAGCGTTAGGTCTGCCGAATAGTACTACTCGGATCCCGAGCGAACCACGC
DNA 2: GCGTGGTTCGCTCGGGATCCGAGTAGTACTATTCGGCAGACCTAACGCTATCTAGACATGGCGCGCCGGCTCTATACTAG
On to B1, for which the “apparent K (half saturation)” value came out at 19 nM with Mer2 and 6 nM with Rec114-Mei4.

B2: Mer2 (untagged, from ^SUMOMer2) (natural protein)
chain: T1 sequence
For B2, in the data set “SEC-MALS [2]”, the “stoichiometry N” value is 4.

B3: Mer2 coiled-coil domain (residues 77-227) (domain or fragment)
chain: IKVLNENSKTLCKSLNKFNQLLEQDAATNGNVKTLIKDLASQIENQLDKVSTAMLSKGDEKKTKSDSSYRQVLVEEISRYNSKITRHVTNKQHETEKSMRCTQEMLFNVGSQLEDVHKVLLSLSKDMHSLQTRQTALEMAFREKADHAYDR
B3: the “stoichiometry N” value in “SEC-MALS [3]” amounted to 4.

B4: dsDNA40 (dsDNA)
DNA 1: CAACGTGGGCAAAGATGTCCTAGCAATGTAATCGTCTATG
DNA 2: CATAGACGATTACATTGCTAGGACATCTTTGCCCACGTTG
On to B4, for which the “apparent K (half saturation)” value in the data set with Mer2 was found to be 64 nM; in the data set with Rec114-Mei4 it was 35 nM.

B5: dsDNA20 (dsDNA)
DNA 1: AAAGATGTCCTAGCAATGTA
DNA 2: TACATTGCTAGGACATCTTT
Turning to B5, the entries for the “apparent K (half saturation)” value in the data set with Mer2 and in the data set with Rec114-Mei4 were above 400 nM and around 80 nM, respectively.

B6: HisFlag-tagged Rec114 (natural protein)
chain: T2 sequence 1
For B6, in the data set with MBP-tagged Mei4, the “stoichiometry N” value was found to be 2 Rec114 per Mei4.

B7: Rec114 (untagged, from ^HisFlag-TEVRec114) (natural protein)
chain: T2 sequence 1
As for B7, the “stoichiometry N” value in data set [4] was 2 Rec114 per Mei4.

The values are drawn from publication PMC8016751 (Nature, 2020).
